Laboratory results: patent publication US20190381169A1, “PHARMACEUTICAL COMBINATIONS FOR IMMUNOTHERAPY” (Technische Universitat Dresden, priority 2014, published 2019)
“Also recorded” adds a separate entry of the source.

What was measured:
p75^NTR [1] = target: T1, p75^NTR (Mus musculus, UniProt Q9Z0W1); assay: Expression of MHC and co-stimulatory molecules on murine PDCs; format: cell-based
T1 construct: endogenous in cells; host or cells: murine plasmacytoid dendritic cells differentiated in vitro from bone marrow with Flt3-L (p75NTR+/+ wildtype; p75NTR-/- as control)
T1 sequence (Q9Z0W1 32-427): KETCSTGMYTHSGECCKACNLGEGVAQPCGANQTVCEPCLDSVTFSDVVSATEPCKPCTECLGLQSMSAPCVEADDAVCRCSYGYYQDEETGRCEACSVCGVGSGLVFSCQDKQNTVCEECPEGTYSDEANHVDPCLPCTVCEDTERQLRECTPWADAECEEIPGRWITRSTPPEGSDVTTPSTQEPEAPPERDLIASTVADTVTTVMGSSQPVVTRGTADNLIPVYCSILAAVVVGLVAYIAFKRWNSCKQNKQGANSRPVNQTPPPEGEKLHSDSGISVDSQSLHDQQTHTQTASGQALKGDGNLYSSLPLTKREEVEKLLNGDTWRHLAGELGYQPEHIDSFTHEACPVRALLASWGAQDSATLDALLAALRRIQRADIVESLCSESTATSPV

p75^NTR [2] = target: T2, p75^NTR (Homo sapiens, UniProt P08138); assay: IFNα secretion by ODN 2216 stimulated human PDC (ELISA); format: cell-based; design: nerve growth factor receptor p75^NTR, which is expressed by human and murine plasmacytoid dendritic cells (PDC); endogenous in cells; host or cells: primary human plasmacytoid dendritic cells (BDCA-4+ selection) from buffy coats or from peripheral blood of allergic donors; details: ODN 2216 plus NGF 200 ng/ml vs ODN 2216 without NGF; 14 hours; p=0.0031
T2 sequence (P08138 29-427): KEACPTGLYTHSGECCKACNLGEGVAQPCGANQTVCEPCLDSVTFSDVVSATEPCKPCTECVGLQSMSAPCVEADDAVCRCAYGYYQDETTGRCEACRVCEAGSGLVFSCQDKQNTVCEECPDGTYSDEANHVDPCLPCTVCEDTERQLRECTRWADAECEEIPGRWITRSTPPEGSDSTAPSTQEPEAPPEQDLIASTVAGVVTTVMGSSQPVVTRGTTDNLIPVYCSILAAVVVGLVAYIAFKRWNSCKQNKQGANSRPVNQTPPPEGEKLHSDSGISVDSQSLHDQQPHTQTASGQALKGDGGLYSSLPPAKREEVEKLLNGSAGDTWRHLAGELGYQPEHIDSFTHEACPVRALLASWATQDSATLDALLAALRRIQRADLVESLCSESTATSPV
Method: Blood samples used for cell purification were obtained from two different sources: Fresh buffy coat samples, not older than 8 hours, served as the source of PDC used in oligodeoxynucleotides (ODN) and anti FcεRIα stimulation experiments. […]
Alike CD4^+ T helper cells isolation from peripheral blood mononuclear cells, total cell numbers were determined prior to purification of PDC. […] Magnetic cell separation procedure as described for first LS column was repeated for second MS column except that washing of the MS column was carried out with 500 μl PBS E/B. Purified PDC were counted and purity was assessed by flow cytometric analysis after staining the cells with monoclonal mouse anti human BDCA2-PE (Miltenyi Biotech) and monoclonal mouse anti human CD271-APC (Miltenyi Biotech). […]

[3] = p75^NTR+/+ PDCs stimulated with CpG B, presence of NGF
[4] = p75^NTR+/+ PDCs stimulated with ovalbumin (OVA), NGF added

NGF: Nerve growth factor, best characterized neurotrophin; natural p75^NTR agonist (R&D Systems)
expression of MHC-II (p75^NTR [1]; p75^NTR+/+ PDCs stimulated with CpG A, presence of NGF): reduced expression; also recorded: decreased expression
expression of MHC I (p75^NTR [1]; [3]): further increased expression
expression of MHC-II (p75^NTR [1]; [3]): increased expression; also recorded: further increase
expression of ICOS-L and MHC-II (p75^NTR [1]; [4]): further increased; also recorded: increased expression
expression of MHC-I, PD-L1 and Ox40-L (p75^NTR [1]; [4]): altered the expression; also recorded: decreased expression
expression of MHC-I, PD-L1 and Ox40-L on p75^NTR−/− PDCs (p75^NTR [1]; p75^NTR−/− PDCs stimulated with ovalbumin, NGF added): but not on p75^NTR−/− PDCs
IFNα secretion (p75^NTR [2]): significant reduction
